Reference: publication PMC2830067 (Journal of molecular biology, 2009)

Target: T1, Aquifex aeolicus GatCAB B-subunit (GatB) (Aquifex aeolicus, UniProt O66766 1-478)
T1 sequence (looked up): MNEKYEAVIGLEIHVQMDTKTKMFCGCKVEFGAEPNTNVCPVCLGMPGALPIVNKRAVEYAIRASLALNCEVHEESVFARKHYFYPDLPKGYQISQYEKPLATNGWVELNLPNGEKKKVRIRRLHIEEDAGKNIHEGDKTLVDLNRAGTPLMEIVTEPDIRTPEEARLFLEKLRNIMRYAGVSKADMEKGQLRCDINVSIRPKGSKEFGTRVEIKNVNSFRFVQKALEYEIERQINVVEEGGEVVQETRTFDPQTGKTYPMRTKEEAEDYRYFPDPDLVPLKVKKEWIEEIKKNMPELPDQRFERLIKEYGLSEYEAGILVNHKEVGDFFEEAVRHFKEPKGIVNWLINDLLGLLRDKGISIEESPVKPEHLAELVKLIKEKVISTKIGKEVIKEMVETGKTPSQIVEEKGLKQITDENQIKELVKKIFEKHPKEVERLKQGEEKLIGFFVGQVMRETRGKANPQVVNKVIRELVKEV
Test: crystal structure

B1: Aquifex aeolicus GatCAB C-subunit (GatC) (natural protein, UniProt O67904 1-94, looked up)
chain: MVDREWVLKIAKLARLELKEEEIEVFQKQLSDILDFIDQLKELDTENVEPYIQEFEETPMREDEPHPSLDREKALMNAPERKDGFFVVPRVVEV
B1: binds.

B2: Aquifex aeolicus GatCAB A-subunit (GatA) (enzyme, UniProt O66610 1-478, looked up)
chain: MLWKKSLSELRELLKRGEVSPKEVVESFYDRYNQTEEKVKAYITPLYGKALKQAESLKERELPLFGIPIAVKDNILVEGEKTTCASKILENFVAPYDATVIERLKKAGALIVGKTNLDEFAMGSSTEYSAFFPTKNPWDLERVPGGSSGGSAASVAVLSAPVSLGSDTGGSIRQPASFCGVIGIKPTYGRVSRYGLVAFASSLDQIGVFGRRTEDVALVLEVISGWDEKDSTSAKVPVPEWSEEVKKEVKGLKIGLPKEFFEYELQPQVKEAFENFIKELEKEGFEIKEVSLPHVKYSIPTYYIIAPSEASSNLARYDGVRYGYRAKEYKDIFEMYARTRDEGFGPEVKRRIMLGTFALSAGYYDAYYLKAQKVRRLITNDFLKAFEEVDVIASPTTPTLPFKFGERLENPIEMYLSDILTVPANLAGLPAISIPIAWKDGLPVGGQLIGKHWDETTLLQISYLWEQKFKHYEKIPLT
modifications: acyl-enzyme intermediate at Ser171 formed with Asn or Gln in the co-crystals
B2: binds.
